Numbering of substitutions follows the chain as printed. Where no end group is shown, it is not given here. fluorescein = fluorescein moiety attached to the N-terminus of the peptide (N-terminal fluorescein label)

Experimental findings from patent publication US8415393B2, “Anti-bacterial drug targeting of genome maintenance interfaces” (Wisconsin Alumni Research Foundation, priority 2007, dated 2013) are described below.

Holding throughout (experiment): fluorescence anisotropy equilibrium binding (Kd,app), ExoI variant titrated into fluorescein-labeled peptide
(Fluorescence polarisation rises when a labelled molecule tumbles more slowly, as on binding a larger partner.)

For one test, the target named is T1, ExoI Glu318Ala variant (Escherichia coli, UniProt P04995 1-475).
T1 construct: also called E318A; Glu318 variant
T1 sequence: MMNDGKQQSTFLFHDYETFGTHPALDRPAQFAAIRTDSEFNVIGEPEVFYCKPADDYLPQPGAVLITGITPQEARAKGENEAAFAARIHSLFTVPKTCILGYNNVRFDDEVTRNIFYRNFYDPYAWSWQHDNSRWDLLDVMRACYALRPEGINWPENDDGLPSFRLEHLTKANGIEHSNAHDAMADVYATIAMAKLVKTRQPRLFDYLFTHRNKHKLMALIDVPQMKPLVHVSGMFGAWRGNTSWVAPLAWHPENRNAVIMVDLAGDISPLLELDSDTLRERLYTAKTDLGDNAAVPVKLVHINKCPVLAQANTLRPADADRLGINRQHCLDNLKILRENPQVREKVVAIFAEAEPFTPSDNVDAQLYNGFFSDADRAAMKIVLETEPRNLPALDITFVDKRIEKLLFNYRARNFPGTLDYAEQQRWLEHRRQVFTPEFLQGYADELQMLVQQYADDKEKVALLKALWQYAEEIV

The target in a further test is T2, ExoI Gln311Ala variant (Escherichia coli, UniProt P04995 1-475).
T2 construct: also called Q311A; Gln311 variant
T2 sequence: T1 sequence with Q311A, A318E

For the next test, the target named is T3, ExoI Gln448Ala variant (Escherichia coli, UniProt P04995 1-475).
T3 construct: helical domain residue; also called Q448A; Gln448 variant
T3 sequence: T1 sequence with A318E, Q448A

For the next test, the target named is T4, ExoI Lys227Ala variant (Escherichia coli, UniProt P04995 1-475).
T4 construct: basic ridge residue; also called K227A; Lys227 variant
T4 sequence: T1 sequence with K227A, A318E

Another test addresses T5, ExoI Tyr207Ala variant (Escherichia coli, UniProt P04995 1-475).
T5 construct: also called Y207A; Tyr207 variant
T5 sequence: T1 sequence with Y207A, A318E

With fluorescein-WMDFDDDIPF (also called F-SSB-Ct; F-WT) [fluorescein-labeled SSB C-terminal peptide (fluorescein-WMDFDDDIPF)], the Kd with ExoI Glu318Ala variant was 80 nM; with ExoI Gln311Ala variant, 304 nM; with ExoI Gln448Ala variant it was 181 nM; with ExoI Lys227Ala variant, around 1000 nM; with ExoI Tyr207Ala variant it was above 1000 nM.
